In article PMC3796545, “Protein-Protein Interactions as a Strategy towards Protein-Specific Drug Design: The Example of Ataxin-1” (PLoS ONE, 2013):

B1: L-CICp [human] / ATX1 AXH (residues A567-K689 of human ATX1) [human] (parent complex)
chain 1: VFPWHSLVPFLAPSQ
chain 2: GAMAPPTLPPYFMKGSIIQLANGELKKVEDLKTEDFIQSAEISNDLKIDSSTVERIEDSHSPGVAVIQFAVGEHRAQVSVEVLVEYPFFVFGQGWSSCCPERTSQLFDLPCSKLSVGDVCISLTLK

Variants of: B1
Assay: ITC; parent: 30 nM

Row | Variant | Kd [nM]
1 | chain 1 A12G | 20
2 | chain 1 H5A | 50
3 | chain 1 W4A | 2600
4 | chain 1 V1A | 20
5 | chain 1 P3A | 40
6 | chain 1 P13A | 20
7 | chain 1 F2A | 30
8 | chain 1 L11A | 50
9 | chain 1 P9A | 40
10 | chain 1 S6A | 10
11 | chain 1 V8A | 70
12 | chain 1 F10A | 60
13 | chain 1 L7A | 500
